Results as given in PMC6860424, “Structural analysis of the manganese transport regulator MntR from Bacillus halodurans in apo and manganese bound forms” (PLoS ONE, 2019).

Target: the molecule itself
Experiment: crystal structure; apo BhMntR; sitting-drop vapor diffusion at 296 K, 0.1 M sodium/potassium phosphate pH 6.2, 0.4 M magnesium formate; 2.3 Å; two subunits in the asymmetric unit

B1: manganese transport regulator MntR from Bacillus halodurans (natural protein, UniProt Q9K943 1-139, looked up)
chain: MPTPSMEDYLERIYLLIEEKGYARVSDIAEALEVHPSSVTKMVQKLDKSDYLVYERYRGLILTAKGKKIGKRLVYRHDLLEDFLKMIGVDSDHIYEDVEGIEHHLSWDAIDRIGDLVQYFQEDPSRLNDLREVQKKNEE
notes: MntR homologue BH2807 of Bacillus halodurans, a protein of 139 amino acids; gene amplified from genomic DNA into pET-28b(+) NdeI/XhoI; subunit described as residues 1-71 (domain 1) and 72-139 (domain 2); Homodimer in both crystal forms; also called BhMntR; BH2807; source: E. coli BL21(DE3) Star pLysS, purified (Ni IMAC, Superdex 200 gel filtration)
  stoichiometry N: 2
